What all share (details): both partners purified
Assay [1] concerns the target NiV-G head domain (crystallisation construct, deglycosylated) (Nipah virus, NP_112027 / Q9IH62 …). Kind of assay: crystal structure.
Assay [2] deals with T1, HeV-G (wild-type Hendra virus attachment glycoprotein G, soluble recombinant) (Hendra virus, UniProt O89343).
T1 construct: source: Expi-293F, purified (StrepTrap HP)
The experiment in a line: SPR. In general terms: Surface plasmon resonance follows binding to a sensor surface in real time, without labels.

Assay [3] addresses deglycosylated NiV-G (N-linked glycans removed with PNGase F) (Nipah virus, Bangladesh isolate …, UniProt Q4VCP5, strain, N-linked glycans removed with PNGase F). Kind of assay: SPR; Biacore T200; antibody (0.5 μg/mL in HBS-EP+) […]; association 120 s, dissociation 900 s.

B1: 14F8 Fab (Fab, V domains shown)
VH: QVQLKESGPGLVAPSQSLSITCTVSGFSLTSYDISWIRQPPGKGLEWLGVIWTGGVTNYNSAFLSRLSISKDNSKSQVFLKMNSLQTDDTAIYYCVREGDWFFDVWGAGTTVTVSS
VL: DVLMTQTPLSLPVSLGDQASISCRSSQSIVHSNGNTYLEWYLQKPGQSPQLLIYKVSNRFSGVPDRFSGSGSGTDFTLKINRVEAEDLGLYYCFQASHVPYTFGGGTKLEIK
notes: also called 14F8 Fab fragment
For the molecule B1, the binding result in assay [1] was “binds”.

B2: chimeric antibody 14F8 (variable regions of mouse m14F8 on a human IgG1 constant region backbone) (antibody, V domains shown)
VH: QVQLKESGPGLVAPSQSLSITCTVSGFSLTSYDISWIRQPPGKGLEWLGVIWTGGVTNYNSAFLSRLSISKDNSKSQVFLKMNSLQTDDTAIYYCVREGDWFFDVWGAGTTVTVSS
VL: DVLMTQTPLSLPVSLGDQASISCRSSQSIVHSNGNTYLEWYLQKPGQSPQLLIYKVSNRFSGVPDRFSGSGSGTDFTLKINRVEAEDLGLYYCFQASHVPYTFGGGTKLEIK
notes: also called Humanized 14F8; m14F8 (mouse parent)
Take B2: the results for the binding result in assay [2] and in assay [3] were “no binding (tested: 100 nM)” and “binds”, respectively.

For the origin of these results see article PMC12394453 (Signal Transduction and Targeted Therapy, 2025).
